Assay [1] has as its target T1, Platelet glycoprotein IIb/IIIa (human, UniProt P08514 32-1039; P05106 27-788).
T1 construct: mature; on human platelets in the aggregation assays (functional rows); also called GP IIb/IIIa; GPIIbIIIa
The assay can be described thus: competition, ELISA or liposome assay.

Another assay concerns the target T2, Vitronectin receptor (human, UniProt P06756 31-1048; P05106 27-788).
T2 construct: mature; also called Vn-R; VnR
The assay can be described thus: competition, ELISA or liposome assay, vitronectin coated. A general note: ELISA stands for enzyme-linked immunosorbent assay.

Assay [2] deals with T1, Platelet glycoprotein IIb/IIIa. Nature of the assay: cell-based or functional assay.
In a further assay the target is T3, Fibronectin receptor (human, UniProt P08648 42-1049; P05556 21-798).
T3 construct: mature; Purified on a 110 kd fibronectin fragment column; also called Fn-R; FnR
T3 sequence (P08648 42-1049, chain 1 of 2): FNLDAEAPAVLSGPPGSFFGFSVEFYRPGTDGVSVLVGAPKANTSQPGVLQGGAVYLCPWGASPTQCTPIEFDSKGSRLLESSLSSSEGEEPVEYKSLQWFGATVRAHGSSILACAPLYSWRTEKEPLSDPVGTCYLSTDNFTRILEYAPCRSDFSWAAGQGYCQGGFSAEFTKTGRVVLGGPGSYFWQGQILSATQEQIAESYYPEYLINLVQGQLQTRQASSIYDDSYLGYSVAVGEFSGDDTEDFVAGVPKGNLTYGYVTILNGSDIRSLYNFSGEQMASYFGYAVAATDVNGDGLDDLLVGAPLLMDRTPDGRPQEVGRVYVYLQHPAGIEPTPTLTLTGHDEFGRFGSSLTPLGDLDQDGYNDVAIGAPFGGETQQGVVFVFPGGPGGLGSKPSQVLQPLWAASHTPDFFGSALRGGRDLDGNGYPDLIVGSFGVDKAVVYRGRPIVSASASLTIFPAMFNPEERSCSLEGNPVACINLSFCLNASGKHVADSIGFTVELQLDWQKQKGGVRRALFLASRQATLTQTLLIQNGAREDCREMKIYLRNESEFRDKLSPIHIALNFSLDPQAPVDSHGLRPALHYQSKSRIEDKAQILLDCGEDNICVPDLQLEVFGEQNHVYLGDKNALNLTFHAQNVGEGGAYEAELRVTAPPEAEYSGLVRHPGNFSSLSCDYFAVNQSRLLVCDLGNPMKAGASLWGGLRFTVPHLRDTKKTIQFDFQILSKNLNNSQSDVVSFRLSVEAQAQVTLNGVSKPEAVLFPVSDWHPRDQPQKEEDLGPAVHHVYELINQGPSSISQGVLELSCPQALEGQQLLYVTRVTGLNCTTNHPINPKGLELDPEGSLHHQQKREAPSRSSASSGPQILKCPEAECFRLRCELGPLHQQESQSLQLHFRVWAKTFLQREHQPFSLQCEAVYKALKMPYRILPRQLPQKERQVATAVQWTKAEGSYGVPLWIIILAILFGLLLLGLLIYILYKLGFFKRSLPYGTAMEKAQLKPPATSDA
T3 sequence (P05556 21-798, chain 2 of 2): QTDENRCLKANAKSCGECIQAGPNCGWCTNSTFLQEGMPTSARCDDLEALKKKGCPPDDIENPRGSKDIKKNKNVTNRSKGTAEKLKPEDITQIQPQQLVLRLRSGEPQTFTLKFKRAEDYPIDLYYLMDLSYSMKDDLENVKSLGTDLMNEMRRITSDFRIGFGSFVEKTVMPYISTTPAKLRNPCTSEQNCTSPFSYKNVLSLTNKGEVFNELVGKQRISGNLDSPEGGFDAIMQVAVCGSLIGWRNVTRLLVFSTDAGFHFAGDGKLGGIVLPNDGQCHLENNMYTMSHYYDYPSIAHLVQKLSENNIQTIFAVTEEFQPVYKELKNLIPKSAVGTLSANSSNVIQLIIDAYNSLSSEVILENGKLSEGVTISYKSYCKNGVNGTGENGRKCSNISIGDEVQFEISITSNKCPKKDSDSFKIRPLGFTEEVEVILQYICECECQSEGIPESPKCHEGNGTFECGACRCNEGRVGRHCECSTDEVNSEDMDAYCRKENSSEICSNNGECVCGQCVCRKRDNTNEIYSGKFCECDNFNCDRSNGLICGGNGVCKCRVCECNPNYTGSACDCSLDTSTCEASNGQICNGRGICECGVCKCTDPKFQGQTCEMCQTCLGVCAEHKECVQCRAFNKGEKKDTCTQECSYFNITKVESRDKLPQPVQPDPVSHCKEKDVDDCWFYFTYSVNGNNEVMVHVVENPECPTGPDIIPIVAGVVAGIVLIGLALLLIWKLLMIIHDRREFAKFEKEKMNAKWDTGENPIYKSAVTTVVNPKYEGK
The assay can be described thus: competitive ELISA, fibronectin coated.

The target of assay [3] is T1, Platelet glycoprotein IIb/IIIa. Nature of the assay: cell-based or functional assay. This is another data set of the same source.
The target is the same in assay [4]. Nature of the assay: cell-based or functional assay. The source holds these as a separate data set.

Starred links: 1 amine or outer side, 2 acyl side, 3 side chain; linkers in the order of their positions; H or OH if unused. Positions of bridges follow the written chain, without caps; N, C: chain ends. Non-standard residues stand in square brackets, D forms with d. Primed or numbered codes have the meaning given here. No end group written: not given here. Tyr(OMe)″ = O-methyl-tyrosine (Y-OMe, TyrOMe, O-Me-Tyr), COc1ccc(C[C@H](N[*:1])C(=O)[*:2])cc1; Tyr(OMe) = O-methyl-tyrosine (O-Me-Tyr, Y-OMe), COc1ccc(C[C@H](N[*:1])C(=O)[*:2])cc1; t‑but‑am‑Pmp = tert-butyl-substituted beta,beta-pentamethylenecysteine; Cys(β,β-pentamethylene) = O=C([C@@H](N[*:1])C1(S[*:3])CCCCC1)[*:2]; O‑Me‑Tyr = O-methyl-tyrosine, COc1ccc(C[C@H](N[*:1])C(=O)[*:2])cc1; Pen = CC(C)(S)[C@H](N)C(=O)O

T2 sequence (P06756 31-1048, chain 1 of 2): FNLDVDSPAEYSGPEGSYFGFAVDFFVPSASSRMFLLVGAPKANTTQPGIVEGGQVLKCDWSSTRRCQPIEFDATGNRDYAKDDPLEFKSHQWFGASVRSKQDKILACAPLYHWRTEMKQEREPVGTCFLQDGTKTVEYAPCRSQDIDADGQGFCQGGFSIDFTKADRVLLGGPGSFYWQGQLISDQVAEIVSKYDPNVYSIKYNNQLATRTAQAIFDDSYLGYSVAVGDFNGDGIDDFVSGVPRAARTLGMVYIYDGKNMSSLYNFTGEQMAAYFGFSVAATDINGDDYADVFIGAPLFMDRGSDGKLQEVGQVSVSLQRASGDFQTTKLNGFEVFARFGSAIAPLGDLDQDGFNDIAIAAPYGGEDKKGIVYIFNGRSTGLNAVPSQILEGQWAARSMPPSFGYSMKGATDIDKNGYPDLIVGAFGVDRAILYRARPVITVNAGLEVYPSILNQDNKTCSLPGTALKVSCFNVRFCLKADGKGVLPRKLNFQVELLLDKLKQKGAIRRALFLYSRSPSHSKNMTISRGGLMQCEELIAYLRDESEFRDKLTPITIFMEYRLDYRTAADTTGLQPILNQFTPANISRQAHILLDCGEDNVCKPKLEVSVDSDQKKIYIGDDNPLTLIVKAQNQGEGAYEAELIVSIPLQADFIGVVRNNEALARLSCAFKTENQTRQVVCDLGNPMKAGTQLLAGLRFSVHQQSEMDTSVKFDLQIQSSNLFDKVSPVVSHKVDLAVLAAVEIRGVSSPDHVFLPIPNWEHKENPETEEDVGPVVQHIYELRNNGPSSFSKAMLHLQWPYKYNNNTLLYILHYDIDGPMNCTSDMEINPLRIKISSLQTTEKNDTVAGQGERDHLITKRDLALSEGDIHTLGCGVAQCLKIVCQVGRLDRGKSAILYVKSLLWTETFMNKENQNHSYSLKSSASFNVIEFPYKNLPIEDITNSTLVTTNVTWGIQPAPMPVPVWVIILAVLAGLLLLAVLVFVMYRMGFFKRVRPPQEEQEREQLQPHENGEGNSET
T2 sequence (P05106 27-788, chain 2 of 2): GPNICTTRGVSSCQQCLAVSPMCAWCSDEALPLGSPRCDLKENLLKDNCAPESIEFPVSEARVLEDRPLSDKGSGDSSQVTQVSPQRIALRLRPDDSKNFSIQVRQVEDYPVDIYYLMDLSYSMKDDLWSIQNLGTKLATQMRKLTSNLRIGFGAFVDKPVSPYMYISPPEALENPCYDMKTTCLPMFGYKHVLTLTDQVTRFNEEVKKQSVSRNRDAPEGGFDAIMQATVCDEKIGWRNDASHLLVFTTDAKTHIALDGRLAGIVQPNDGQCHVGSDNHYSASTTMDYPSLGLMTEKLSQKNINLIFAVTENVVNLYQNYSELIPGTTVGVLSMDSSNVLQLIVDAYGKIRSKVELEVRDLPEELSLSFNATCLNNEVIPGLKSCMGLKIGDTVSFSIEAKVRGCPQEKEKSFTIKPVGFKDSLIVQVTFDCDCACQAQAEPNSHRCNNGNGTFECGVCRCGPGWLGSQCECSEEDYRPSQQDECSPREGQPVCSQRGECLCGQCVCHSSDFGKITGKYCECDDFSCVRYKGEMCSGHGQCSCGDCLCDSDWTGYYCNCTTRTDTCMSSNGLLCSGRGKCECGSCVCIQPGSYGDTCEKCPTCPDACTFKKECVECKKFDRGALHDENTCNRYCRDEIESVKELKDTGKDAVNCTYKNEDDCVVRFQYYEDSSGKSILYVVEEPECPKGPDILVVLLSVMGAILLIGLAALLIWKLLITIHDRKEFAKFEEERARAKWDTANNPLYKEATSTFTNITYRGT

B1: Ac(Pmc)GHRGD(O-Me-Tyr)RC-NH2 (peptide)
peptide: Ac-[Cys(β,β-pentamethylene)]GHRGD[Tyr(OMe)]RC-NH2
modifications: disulfide 1-9
SMILES: COc1ccc(C[C@@H]2NC(=O)[C@H](CC(=O)O)NC(=O)CNC(=O)[C@H](CCCNC(=N)N)NC(=O)[C@H](Cc3c[nH]cn3)NC(=O)CNC(=O)[C@@H](NC(C)=O)C3(CCCCC3)SSC[C@@H](C(N)=O)NC(=O)[C@H](CCCNC(=N)N)NC2=O)cc1
One may read the IC50 as the point on the concentration scale where inhibition reaches its midpoint. Read a low IC50 as greater potency in that assay. With B1, the values for the half-inhibitory concentration (IC50) (in assay [1]; with Vitronectin receptor) were 400 nM and 10000 nM, respectively.
Turning to Ac-CDPRGD[Tyr(OMe)″]RC-NH2 (disulfide 1-9 (inferred)) [AcCDPRGD(TyrOMe)RC-NH2], in assay [2], the “Inhibition of Platelet Aggregation, IC50” value turned out to be 3000 nM.

B2: R(t-but-am-Pmp)GHRGDLRCR-2 (peptide)
peptide: R[t‑but‑am‑Pmp]GHRGDLRCR
modifications: disulfide 2-10; not fully specified; printed as R(t-but-am-Pmp)GHRGDLRCR-2; also: second HPLC peak, configuration not assigned
Regarding B2, the IC50 in assay [1] was 60 nM; in the assay with Vitronectin receptor, 3700 nM.
On to R[Cys(β,β-pentamethylene)]GHRGD[O‑Me‑Tyr]RCR (disulfide 2-10, also called R(Pmc)GHRGD(Y-OMe)RCR; 5O) [R(Pmc)GHRGD(O-Me-Tyr)RCR], for which, in assay [1], the half-inhibitory concentration (IC50) was 60 nM.
Consider VRGDSPDG, for which the IC50 in assay [1] was found to be 270 nM; with Fibronectin receptor, 40 nM; with Vitronectin receptor, 240 nM. The “IC50, ADP-Stimulated Aggregation” value in assay [3] came out at 92000 nM.
Regarding R[Pen]GHRGDWRCR (disulfide 2-10, also called 4Q) [R(Pen)GHRGDWRCR], the IC50 in assay [1] stood at 800 nM. Besides, the “IC50 (µM) Human Platelet Aggregation” value in assay [4] was found to be 3.3 µM.

Values taken from US6521594 (LA JOLLA CANCER RESEARCH FOUNDATION, dated 2003).
